Earlier results as cited in patent US20200069786A1, “COMPOSITION AND PROCESS FOR PREPARING VACCINE” (TREOS BIO ZRT., priority 2018, published 2020).
Read-outs that look alike come from different tables or passages of the source.

Test system: TSA
[1] = TSA expression rate in MELANOMA
[2] = TSA expression rate in LEUKEMIAS

Molecule | Expression Rate (ER) % (TSA expression rate in CRC) [%] | Expression Rate (ER) % [1] [%] | further results
TSP50 (protein, UniProt Q9UI38 40-385, looked up) Probable threonine protease …: AGEAPGALSTADPADQSVQCVPKATCPSSRPRLLWQTPTTQTLPSTTMETQFPVSEGKVDPYRSCGFSYEQDPTLRDPEAVARRWPWMVSVRANGTHICAGTIIASQWVLTVAHCLIWRDVIYSVRVGSPWIDQMTQTASDVPVLQVIMHSRYRAQRFWSWVGQANDIGLLKLKQELKYSNYVRPICLPGTDYVLKDHSRCTVTGWGLSKADGMWPQFRTIQEKEVIILNNKECDNFYHNFTKIPTLVQIIKSQMMCAEDTHREKFCYELTGEPLVCSMEGTWYLVGLVSWGAGCQKSEAPPIYLQVSSYQHWIWDCLNGQALALPAPSRTLLLALPLPLSLLAAL | 89 | – | Expression Rate (ER) % (TSA expression rate in GASTRIC cancer): 57%
MAGE-A5 (protein, UniProt P43359 1-124, looked up) Putative melanoma-associated …: MSLEQKSQHCKPEEGLDTQEEALGLVGVQAATTEEQEAVSSSSPLVPGTLGEVPAAGSPGPLKSPQGASAIPTAIDFTLWRQSIKGSSNQEEEGPSTSPDPESVFRAALSKKVADLIHFLLLKY | 7 | 25 | TSA Expression Rate (ER) (BREAST): 9%
PAGE2 (protein, UniProt Q7Z2X7 1-111, looked up) P antigen family member 2: MSELLRARSQSSERGNDQESSQPVGSVIVQEPTEEKRQEEEPPTDNQGIAPSGEIENQAVPAFQGPDMEAFQQELALLKIEDEPGDGPDVREGIMPTFDLTKVLEAGDAQP | – | – | Expression Rate (ER) % [2]: 4%
TMEM31 (protein, UniProt Q5JXX7 1-168, looked up) Transmembrane protein 31: MRLTEKSEGEQQLKPNNSNAPNEDQEEEIQQSEQHTPARQRTQRADTQPSRCRLPSRRTPTTSSDRTINLLEVLPWPTEWIFNPYRLPALFELYPEFLLVFKEAFHDISHCLKAQMEKIGLPIILHLFALSTLYFYKFFLPTILSLSFFILLVLLLLLFIIVFILIFF | – | 63 | –
PAGE5 (protein, UniProt Q96GU1 1-130, looked up) P antigen family member 5: MQAPWAGNRGWAGTREEVRDMSEHVTRSQSSERGNDQESSQPVGPVIVQQPTEEKRQEEEPPTDNQGIAPSGEIKNEGAPAVQGTDVEAFQQELALLKIEDAPGDGPDVREGTLPTFDPTKVLEAGEGQL | 11 | 22 | Expression Rate (ER) % (TSA expression rate in Kidney): 44%
XAGE-2 (protein, UniProt Q96GT9 1-111, looked up) X antigen family member 2: MSWRGRSTYRPRPRRSLQPPELIGAMLEPTDEEPKEEKPPTKSRNPTPDQKREDDQGAAEIQVPDLEADLQELCQTKTGDGCEGGTDVKGKILPKAEHFKMPEAGEGKSQV | – | 14 | Expression Rate (ER) % (TSA expression rate in HEAD and NECK): 6%; Expression Rate (ER) % (TSA expression rate in PEDIATRIC): 14%
CTNNA2 (protein, UniProt P26232 1-953, looked up) Catenin alpha-2: MTSATSPIILKWDPKSLEIRTLTVERLLEPLVTQVTTLVNTSNKGPSGKKKGRSKKAHVLAASVEQATQNFLEKGEQIAKESQDLKEELVAAVEDVRKQGETMRIASSEFADDPCSSVKRGTMVRAARALLSAVTRLLILADMADVMRLLSHLKIVEEALEAVKNATNEQDLANRFKEFGKEMVKLNYVAARRQQELKDPHCRDEMAAARGALKKNATMLYTASQAFLRHPDVAATRANRDYVFKQVQEAIAGISNAAQATSPTDEAKGHTGIGELAAALNEFDNKIILDPMTFSEARFRPSLEERLESIISGAALMADSSCTRDDRRERIVAECNAVRQALQDLLSEYMNNTGRKEKGDPLNIAIDKMTKKTRDLRRQLRKAVMDHISDSFLETNVPLLVLIEAAKSGNEKEVKEYAQVFREHANKLVEVANLACSISNNEEGVKLVRMAATQIDSLCPQVINAALTLAARPQSKVAQDNMDVFKDQWEKQVRVLTEAVDDITSVDDFLSVSENHILEDVNKCVIALQEGDVDTLDRTAGAIRGRAARVIHIINAEMENYEAGVYTEKVLEATKLLSETVMPRFAEQVEVAIEALSANVPQPFEENEFIDASRLVYDGVRDIRKAVLMIRTPEELEDDSDFEQEDYDVRSRTSVQTEDDQLIAGQSARAIMAQLPQEEKAKIAEQVEIFHQEKSKLDAEVAKWDDSGNDIIVLAKQMCMIMMEMTDFTRGKGPLKNTSDVINAAKKIAEAGSRMDKLARAVADQCPDSACKQDLLAYLQRIALYCHQLNICSKVKAEVQNLGGELIVSGTGVQSTFTTFYEVDCDVIDGGRASQLSTHLPTCAEGAPIGSGSSDSSMLDSATSLIQAAKNLMNAVVLTVKASYVASTKYQKVYGTAAVNSPVVSWKMKAPEKKPLVKREKPEEFQTRVRRGSQKKHISPVQALSEFKAMDSF | – | – | Expression Rate (ER) % [2]: 45%
TEX14 (protein, UniProt Q8IWB6 1-1497, looked up) Inactive …: MSRAVRLPVPCPVQLGTLRNDSLEAQLHEYVKQGNYVKVKKILKKGIYVDAVNSLGQTALFVAALLGLRKFVDVLVDYGSDPNHRCFDGSTPVHAAAFSGNQWILSKLLDAGGDLRLHDERGQNPKTWALTAGKERSTQIVEFMQRCASHMQAIIQGFSYDLLKKIDSPQRLVYSPSWCGGLVQGNPNGSPNRLLKAGVISAQNIYSFGFGKAMPWFQFYLTGATQMAYLGSLPVIGEKEVIQADDEPTFSFFSGPYMVMTNLVWNGSRVTVKELNLPTHPHCSRLRLADLLIAEQEHSSKLRHPYLLQLMAVCLSQDLEKTRLVYERITIGTLFSVLHERRSQFPVLHMEVIVHLLLQISDALRYLHFQGFIHRSLSSYAVHIISPGEARLTNLEYMLESEDRGVQRDLTRVPLPTQLYNWAAPEVILQKAATVKSDIYSFSMIMQEILTDDIPWKGLDGSVVKKAVVSGNYLEADVRLPKPYYDIVKSGIHVKQKDRTMNLQDIRYILKNDLKDFTGAQRTQPTESPRVQRYGLHPDVNVYLGLTSEHPRETPDMEIIELKEMGSQPHSPRVHSLFTEGTLDPQAPDPCLMARETQNQDAPCPAPFMAEEASSPSTGQPSLCSFEINEIYSGCLILEDDIEEPPGAASSLEADGPNQVDELKSMEEELDKMEREACCFGSEDESSSKAETEYSFDDWDWQNGSLSSLSLPESTREAKSNLNNMSTTEEYLISKCVLDLKIMQTIMHENDDRLRNIEQILDEVEMKQKEQEERMSLWATSREFTNAYKLPLAVGPPSLNYIPPVLQLSGGQKPDTSGNYPTLPRFPRMLPTLCDPGKQNTDEQFQCTQGAKDSLETSRIQNTSSQGRPRESTAQAKATQFNSALFTLSSHRQGPSASPSCHWDSTRMSVEPVSSEIYNAESRNKDDGKVHLKWKMEVKEMAKKAATGQLTVPPWHPQSSLTLESEAENEPDALLQPPIRSPENTDWQRVIEYHRENDEPRGNGKFDKTGNNDCDSDQHGRQPRLGSFTSIRHPSPRQKEQPEHSEAFQASSDTLVAVEKSYSHQSMQSTCSPESSEDITDEFLTPDGEYFYSSTAQENLALETSSPIEEDFEGIQGAFAQPQVSGEEKFQMRKILGKNAEILPRSQFQPVRSTEDEQEETSKESPKELKEKDISLTDIQDLSSISYEPDSSFKEASCKTPKINHAPTSVSTPLSPGSVSSAASQYKDCLESITFQVKTEFASCWNSQEFIQTLSDDFISVRERAKKLDSLLTSSETPPSRLTGLKRLSSFIGAGSPSLVKACDSSPPHATQRRSLPKVEAFSQHHIDELPPPSQELLDDIELLKQQQGSSTVLHENTASDGGGTANDQRHLEEQETDSKKEDSSMLLSKETEDLGEDTERAHSTLDEDLERWLQPPEESVELQDLPKGSERETNIKDQKVGEEKRKREDSITPERRKSEGVLGTSEEDELKSCFWKRLGWSESSRIIVLDQSDLSD | – | – | Expression Rate (ER) % [2]: 5%
BAGE-2 (protein, UniProt Q86Y30 18-109, looked up) B melanoma antigen 2: RLMKEESPVVSWRLEPEDGTALDVHFVSTLEPLSNAVKRNVPRCIIILVLQEPTAFRISVTSSCFVQNTLTKLLKDRRKMQTVQCATARETS | – | 23 | –
BAGE-3 (protein, UniProt Q86Y29 18-109, looked up) B melanoma antigen 3: RLMKEESPVVSWRLEPEDGTALDVHFVSTLEPLSNAVKRNVPRCIIILVLQEPTPFRISVTSSCFVQNTLTKLLKDRRKMQTVQCATAQETS | – | 14 | –
PAGE4 (protein, UniProt O60829 1-102, looked up) P antigen family member 4: MSARVRSRSRGRGDGQEAPDVVAFVAPGESQQEEPPTDNQDIEPGQEREGTPPIEERKVEGDCQEMDLEKTRSERGDGSDVKEKTPPNPKHAKTKEAGDGQP | 33 | – | Expression Rate (ER) % (TSA expression rate in PROSTATE cancer): 100%
